Data as given in patent US20040106773A1 (priority 2003, published 2004).

Experiments:
[1] = tested on: F-11 cells; details: DRG-like F-11 cells; cited from earlier work
[2] = target: rat PTH2R (rat, UniProt P70555 25-546); experiment: cell-based or functional assay
[3] = target: T1, human PTH2R (Homo sapiens, UniProt P49190); experiment: Measurement of [Ca2+]i using the FLIPR, human PTH2R; format: cell-based; details: human PTH2R expressing HEK293 cells
T1 construct: expressed in transfected cells
Description: (§1) HEK293 cells were transfected with rat and human PTH2R and cell lines that stably express the receptors were established and evaluated. One cell line was selected for each rat and human PTH2R and used for all the functional assays. Specifically, HEK293 cells were transfected with pCDNA3.1/V5-His-RatPTH2R plasmid DNA and pCDNA3.1-E/Uni-lacZ-HumanPTH2R plasmid DNA using FuGENE 6 transfection reagent (Roche Molecular Biochemicals). Three days after transfection, cells were put under selection with 800 μg/ml geneticin (G418, Gibco BRL). After three weeks of selection, single colonies were cloned using cloning cylinders. Cloned colonies were scaled up to T25 flasks. More than 10 cell lines for each plasmid were tested for function in the cAMP SPA assay.
(§2) HEK293 cells were seeded into […] clear-base 96 well plates (BD Biocoat) coated with poly-D-lysine at a density of 100,000 cells per well in MEM, and cultured overnight.
(§3) Curve-fitting and parameter estimation were carried out using Graph Pad Prism, 3.00 (GraphPad Software Inc., California, U.S.A.).

[4] = target: T2, rat PTH2R (Rattus norvegicus, UniProt P70555); experiment: cAMP SPA assay for PTH2R activation, rat PTH2R; format: cell-based; details: HEK293 cells expressing rat PTH2R, FIG. 4A
T2 construct: V5-His (appears only in the vector name); expressed in transfected cells
Description: as §1
(§4) HEK293PTH2R cells were seeded in a 96-well poly-D-lysine coated plate at 100,000 cells per well and cultured overnight. After washing with 200 μl of PBS and treating with 100 μl of 300 nM IBMX in assay medium (MEM without phenol red and FBS) at 37° C. for 10 min. The assay medium was then aspirated and the cells were washed with PBS. The cellular of cAMP was measured using cAMP SPA Direct Screening (Amersham/Pharmacia RPA559). Each concentration of ligand was repeated as triplicate.

[5] = target: T2, rat PTH2R; experiment: Measurement of [Ca2+]i using the FLIPR, rat PTH2R; format: cell-based
Description: as §1, §2, §3

[6] = target: T1, human PTH2R; experiment: cAMP SPA assay for PTH2R activation, human PTH2R; format: cell-based; details: HEK293 cells expressing human PTH2R, FIG. 4B
Description: as §1, §4

[7] = target: human PTH2R (human, UniProt P49190 25-550); experiment: cell-based or functional assay
Sequence of human PTH2R (human, UniProt P49190 25-550) (P49190 25-550): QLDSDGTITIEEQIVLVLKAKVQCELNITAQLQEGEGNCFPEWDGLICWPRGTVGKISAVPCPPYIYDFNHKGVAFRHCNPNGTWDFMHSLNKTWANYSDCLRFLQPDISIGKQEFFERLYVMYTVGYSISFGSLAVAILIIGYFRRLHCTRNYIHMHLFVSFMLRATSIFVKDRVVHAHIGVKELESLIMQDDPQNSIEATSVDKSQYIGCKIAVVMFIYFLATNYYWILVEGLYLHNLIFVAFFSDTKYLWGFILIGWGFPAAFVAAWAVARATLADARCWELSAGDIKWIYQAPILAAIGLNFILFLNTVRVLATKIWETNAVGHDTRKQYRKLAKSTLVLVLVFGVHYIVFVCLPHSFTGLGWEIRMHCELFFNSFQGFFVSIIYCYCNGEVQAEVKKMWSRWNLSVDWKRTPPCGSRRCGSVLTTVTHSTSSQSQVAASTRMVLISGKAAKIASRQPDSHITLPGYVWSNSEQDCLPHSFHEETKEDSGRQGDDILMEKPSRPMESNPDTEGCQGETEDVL

T1 sequence (P49190 25-550): as above
Sequence of rat PTH2R (rat, UniProt P70555 25-546) (P70555 25-546): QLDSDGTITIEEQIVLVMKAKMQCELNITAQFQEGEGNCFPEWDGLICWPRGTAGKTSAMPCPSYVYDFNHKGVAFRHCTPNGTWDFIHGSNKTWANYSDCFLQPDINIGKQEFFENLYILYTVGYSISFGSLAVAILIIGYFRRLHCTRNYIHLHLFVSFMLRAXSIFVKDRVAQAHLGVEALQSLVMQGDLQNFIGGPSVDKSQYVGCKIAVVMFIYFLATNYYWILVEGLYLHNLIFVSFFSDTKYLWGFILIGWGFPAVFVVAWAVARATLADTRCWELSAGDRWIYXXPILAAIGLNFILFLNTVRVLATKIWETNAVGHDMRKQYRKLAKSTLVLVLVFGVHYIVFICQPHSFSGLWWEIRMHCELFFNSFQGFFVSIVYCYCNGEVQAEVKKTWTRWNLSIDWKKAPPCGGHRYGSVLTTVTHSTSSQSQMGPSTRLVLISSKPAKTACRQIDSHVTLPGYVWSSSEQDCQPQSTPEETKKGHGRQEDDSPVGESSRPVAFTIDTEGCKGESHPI
T2 sequence (P70555 25-546): as above

In the case of “bovine tuberoinfundibular peptide of 39 residues [bTIP39]”, the “effect on cAMP” value [1] is given as “increases cAMP”.

Work on “human PTH (1-34) (from UniProt P01270 32-65) (peptide)” yielded a logEC50, cAMP increase (cAMP SPA assay) in HEK293 cells stably expressing rat PTH2R [2] of -9.3 and a maximal level of cAMP (pmol/100,000 cells) [2] of under 29.

For human PTH(1-34), the “agonist character, [Ca2+]i response” value [3] was “little response”, the “relative potency, cAMP” value [4] was “slightly less potent” and the “agonist character, [Ca2+]i response” value ([5]; rat PTH2R expressing HEK293 cells) was “little response if any”. For the same molecule, the “relative potency, cAMP” value [6] was “slightly less potent than the other peptides”.

With rat PTH(1-34) the “maximum response compared to that elicited by human TIP39” value ([3]; [Ca2+]i FLIPR) was 42±2% and the “maximum response compared to that of human TIP39” value ([5]; rat PTH2R expressing cells, [Ca2+]i FLIPR) was about 30%.

Molecule “rat PTH(1-34) (from UniProt P04089 32-65) (peptide)” has a maximal level of cAMP (pmol/100,000 cells) [2] of under 29 and a maximum [Ca2+]i response compared to that of human TIP39 [2] of 30%.

In the case of SLALADDAAFRERARLLAALERRRWLDSYMQKLLLLDAP [mouse tuberoinfundibular peptide of 39 residues], the “logEC50, [Ca2+]i increase (FLIPR)” value [2] is reported as -7.3, the “logEC50, cAMP increase (cAMP SPA assay) in HEK293 cells stably expressing rat PTH2R” value [2] is reported as -9.9 and the “logEC50, [Ca2+]i increase (FLIPR)” value [7] is reported as -7.8. For the same molecule, the “logEC50, cAMP increase (cAMP SPA assay) in HEK293 cells stably expressing human PTH2R” value [7] was -9.7.
